Measured values published in the nanobody polyreactivity screen of Harvey et al. (2022).

Test: yeast display, Sf9 membrane polyspecificity reagent, FACS + sequencing; frameworks hold sequencing errors
In short: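 Polyreactivity labels are assigned by the sorting gate from which each nanobody was recovered. The gates were low and high (top ~1%), set on anti-HA fluorescence for expression and streptavidin fluorescence for reagent binding. Before sorting, galactose-induced (36–48 hours) yeast display cells were stained for 1 hour at 4 °C with 10% biotinylated, detergent-solubilized Sf9 membrane reagent.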

Sequence | polyreactivity (PSR sort gate)
QVQLVESGGGLVQAGGSLRLSCAASGSLSYTYGMGCYRQAPGKERELVAAISTSGGNTYYADSVKGRFTISRDNAKNSVYLQMNSLKPEDTAVYYCSAYYGRGSIKRYYYWGQGTQVTVSS | high polyreactivity
QVQLVESGGGLVQAGGSLRLSCAASGITFDYYDMGWYRTAPGKERELVAAISSDGSTYYADSVKGRFTISRDNAKNTVYLQMNSLKPEDTAVYYCNAVAIEPYFYVVYDIFDYWGQGTQVTVSS | low polyreactivity
QVQLVESGGGLVQAGGRLRISCAASGFTFEYNDMGWYRQAPGKERELVASISYDSDSTYYADSVKGRFTISRDNAKNTVYLQMNSLKPEDTAVYYCNAGSSYHEYGYWGQGTQVTVSS | high polyreactivity
QVQLVESGGGLVQAGGSLRISCAASGSTFDGNAMGWYRQAPGKERELVAAISDGDSTTNADSVKGRFTISRDNAKNTVYLQMNSLKPEDTAVYYCAARSPGDQRLGRHYYGEFDYWGQGTQVTVSS | low polyreactivity
QVQLVESGGGLVQAGGSLRLSCAPSGYIFAPNAMGWYRQAPGKERELVAAITFSGGSTSYADSVKGRFTISRDNAKNTVYLQMNSLKPEDTAVYYCAAYWYSLYYLFPYDYWGQGTLVTVSS | low polyreactivity
QVQLVESAGGLVQAGGSLRLSCAASGSTFGLNAMGRYRQAPGKERELVAAITRSGATTYYADSVKGRFTISRDNAKNTVYLKMNSLKPEDTAVYYCNKVYRPYTKRYYWGQGTQVTVSS | high polyreactivity
QVQLVESGGGLVQAGGSLRLSCAASGSNFFTNAMGGYRQAPGKERELVAVITKRGGSTYYADSVKGRFTISRDNAKNTVYIQMNSLKPEDTAVYYCAADARQWRYYYWGQGSQVTVSS | high polyreactivity
QVQLVESGGGLVQAGGSLRLTCAASGAIFDSYAMGWYRQAPGKEWQLVASISYRGGSTYYADSVKGRFTISRDHAKNTVYLQKNSLKPEDTAVYYCAATPGYHYRSWRYYYWGQGTLVTVSS | high polyreactivity
QVQLVESGGGLVQAGGSLRLSCAASGNIFYVYVMGWYRQAPGKERELVASITSGASTYYADSVKGRFTISRDNAKNTVYFQMNSLKPEDTAVYYCAAEALGGAGDYSTLYIYDYWGQGTQVTVSS | low polyreactivity
QVQLVESGGGLVQAGGSLRLSCAASGFTFSYYAMGWYRQAPGHEREFVAAIIWNGTSTYYADSVKGRFTISRDNAKNTVYLQMNSLKPEDTAVYYCAAYDVHDYDYWGQGTQVTVSS | high polyreactivity
QVHLVESGRGLVQAGGSLRLSCAASGSTFGWNTMGWYRQAPAKERELVAAISWSGDRTYYADSVKGRFTISRDNAKNTVYLQMNRLKPEDTAVYYCARQRYYGYYYWGQGTQVTVSS | high polyreactivity
QVQLVESVGGLVQAGGSLRLSCAASGRTFGVYAMGWYRQAPGKERELVAAISRRAGNTYYADSVKGRFTISRDNAKNTVYLQMNSLKPEDTAVYYCAAYFSRQYGYWGLGTQVTVSS | high polyreactivity
QVQLVESGGGLVQAGGSLRLSCAASGSTFLNYVMGWYRQAPGKERELVATINSGDSTNYADSVKGRFTISRDNAKNTVYLQMNSLKPEDTAVYYCAAEGNYWVDYWGQGTQVTVSS | low polyreactivity
QVQLVESGRGLVQEGGSLRLSCAPSGSTFTSYAMGWSRQAPGKERELVAAINYSGGSTNYADSVKGRFTLSRDNAMNTVYLQMNSLKPEDTAVYYFNVVRRSPGDYSYYYWGQGTQVTVSS | low polyreactivity
QVQLVESGGGLVQAGGSLRLSCAASGRIFRYYAMGWYRQAPGKESELVAAITASGGSTYYADSVKGRFTISRDNAKNTVYLQMNSLKPEDTAVYYCATEYVVYRSWVPKYGYWGQGTQVTVSS | high polyreactivity
QFQLVESGGCLVQAGGSLRLSCAASGFTFGYNAMGWYRQAPGKERELVAVITQSGGRTYYADSVKGRFTISRDNAKYTVYVQMNSLKPEDTAVYYCADRYRLPPYYYWGQGSQVTVSS | high polyreactivity
QDQLVESGGGLVQAGGSLRLSCAASRNIFYINTMGWYIQAPGKERALVAAIDASDGTTYYADSVKGRFTISRDNAKNTVYLQMNSVKPEDTAVYYCATRRGYDSVYYFYTLWYYYWGQGTQVTVSS | low polyreactivity
QVQLVESGGGLVQAGGRLRISCAASGSIFGTYTMGWYRLAPGEERELVAAITSDGRTYYADSVKGRFTISRDNAKNTVYLQMNSLKPEDTAVYYCAADSSGYYWFNYWGQGTQVTVSS | low polyreactivity
QVQLVESGGGLVQAGGSLRLSCAASGTFYGYAMGGYRQSPGKERELVAAITWSGGSTYYADSVKGRFTISRDNAKNTVYLQMNSLKPEDTAVYYCAASLYSGYDSWGQGTQVTVSS | low polyreactivity
QVQLVESGGGLVQAGGSLRLSCAASGSTFRFYAMGWYRQAPGKERELVAAITGSGGRTYYADSVKGRFTISRDNAKNTVYLQMNSLKPEDTAVYYCSARAYWLTGLTFSYKYNYWGQGTQVTVSS | high polyreactivity
QVQLVESGGGLVQAGGSLRLSCAASGSIFDAYAMGWYRPATGKERELVAAITYSGGSTYYADSVKGRFTISRDNAKNTVYLQMNSLKPEDTAVYYCNTDSRVRTWFRAFTYDSWGQGTQVTVSS | low polyreactivity
